The source of these data is publication PMC2933578, “Mutational analysis of an archaeal minichromosome maintenance protein exterior hairpin reveals critical residues for helicase activity and DNA binding” (BMC Molecular Biology, 2010).

Numbering of substitutions follows the chain as printed. Names may count otherwise.

The target in series [1] is ssoMCM mutant M7 (ED327AA) (Sulfolobus solfataricus) (UniProt Q9UXG1). Kind of series: SEC; Superose 6 size exclusion column, 250 mM NaCl; ~0.5 mg of protein; markers ferritin (440 kD) and aldolase (158 kD); self-association to the hexamer. Background: SEC sorts molecules by how far they enter the pores of the column.
Substrate in series [2]: Nc1ncnc2c1ncn2[C@@H]1O[C@H](COP(=O)(O)OP(=O)(O)OP(=O)(O)O)[C@@H](O)[C@H]1O
Nature of the series: EnzChek phosphate release ATPase assay. The following applies: no DNA, per monomeric MCM subunit, unit nM. Format: biochemical, Saccharolobus solfataricus. An excerpt:
EnzChek phosphate release ATPase assay on ssoMCM

Series [3] deals with the molecule itself. Kind of series: SEC; Superose 6 size exclusion column, 250 mM NaCl; ~0.5 mg of protein; markers ferritin (440 kD) and aldolase (158 kD); self-association to the hexamer.
Where [4] appears, read: mutant M1: text gives lysine K323, Table 2 prints R323A.

For “ssoMCM mutant M7 (ED327AA) (from UniProt Q9UXG1 1-686) (enzyme)”, in series [1], the stoichiometry N was 6.

B1: ssoMCM mutant M6 (D327A) (enzyme, Sulfolobus solfataricus, UniProt Q9UXG1 1-686, looked up)
chain: MEIPSKQIDYRDVFIEFLTTFKGNNNQNKYIERINELVAYRKKSLIIEFSDVLSFNENLAYEIINNTKIILPILEGALYDHILQLDPTYQRDIEKVHVRIVGIPRVIELRKIRSTDIGKLITIDGILVKVTPVKERIYKATYKHIHPDCMQEFEWPEDEEMPEVLEMPTICPKCGKPGQFRLIPEKTKLIDWQKAVIQERPEEVPSGQLPRQLEIILEDDLVDSARPGDRVKVTGILDIKQDSPVKRGSRAVFDIYMKVSSIEVSQKVLDEVIISEEDEKKIKDLAKDPWIRDRIISSIAPSIYGHWELKEALALALFGGVPKVLEATRIRGDIHILIIGDPGTAKSQMLQFISRVAPRAVYTTGKGSTAAGLTAAVVREKGTGEYYLEAGALVLADGGIAVIDEIDKMRDEDRVAIHEAMEQQTVSIAKAGIVAKLNARAAVIAAGNPKFGRYISERPVSDNINLPPTILSRFDLIFILKDQPGEQDRELANYILDVHSGKSTKNIIDIDTLRKYIAYARKYVTPKITSEAKNLITDFFVEMRKKSSETPDSPILITPRQLEALIRISEAYAKMALKAEVTREDAERAINIMRLFLESVGVDMESGKIDIDTIMTGKPKSAREKMMKIIEIIDSLAVSSECAKVKDILKEAQQVGIEKSNIEKLLTDMRKSGIIYEAKPECYKKV
notes: MCM of Sulfolobus solfataricus with D327A; source: cloned and purified (Resource Q anion exchange, size-exclusion chromatography) as described previously [15]
Consider B1, for which, in series [2] (mutant M6), the Km is listed as 100 ± 20 nM and the kcat turned out to be 0.0383 ± 0.00167 s⁻¹. Also, in series [3], the “stoichiometry N” value is 6.

B2: ssoMCM mutant M8 (R329A) (enzyme, Sulfolobus solfataricus, UniProt Q9UXG1 1-686, looked up)
chain: B1 chain with A327D, R329A
notes: MCM of Sulfolobus solfataricus with R329A; source: cloned and purified (Resource Q anion exchange, size-exclusion chromatography) as described previously [15]
Regarding B2, in series [2] (mutant M8), the Km is 170 ± 40 nM and the kcat came to 0.03 ± 0.00167 s⁻¹. The “stoichiometry N” value in series [3] turned out to be 6.

B3: ssoMCM mutant M4 (VL324AA) (enzyme, Sulfolobus solfataricus, UniProt Q9UXG1 1-686, looked up)
chain: B1 chain with V324A, L325A, A327D
notes: MCM of Sulfolobus solfataricus with the double mutation VL324AA (V324 and L325 to alanine); source: cloned and purified (Resource Q anion exchange, size-exclusion chromatography) as described previously [15]
On to B3, for which, in series [2] (mutant M4, printed VL324AA), the Km was 230 ± 10 nM and the kcat came to 0.065 ± 0.00167 s⁻¹. Also, the “stoichiometry N” value in series [3] was determined as 6.

B4: ssoMCM mutant M3 (L325A) (enzyme, Sulfolobus solfataricus, UniProt Q9UXG1 1-686, looked up)
chain: B1 chain with L325A, A327D
notes: MCM of Sulfolobus solfataricus with L325A; source: cloned and purified (Resource Q anion exchange, size-exclusion chromatography) as described previously [15]
Consider B4, for which, in series [2] (mutant M3), the Km was determined as 270 ± 40 nM and the kcat turned out to be 0.0783 ± 0.005 s⁻¹. Besides, the “stoichiometry N” value in series [3] was 6.

B5: ssoMCM mutant M1 (K323A; printed R323A in Table 2) (enzyme, Sulfolobus solfataricus, UniProt Q9UXG1 1-686, looked up)
chain: B1 chain with K323A, A327D
notes: MCM of Sulfolobus solfataricus with the mutation of M1; also called K323 (M1); source: cloned and purified (Resource Q anion exchange, size-exclusion chromatography) as described previously [15]
B5: in series [2] (setting [4]), the Km came to 140 ± 30 nM and the kcat stood at 0.03 ± 0.00167 s⁻¹. In addition, the “stoichiometry N” value in series [3] was determined as 6.

B6: ssoMCM mutant M10 (K346A, Walker A mutant) (enzyme, Sulfolobus solfataricus, UniProt Q9UXG1 1-686, looked up)
chain: B1 chain with A327D, K346A
notes: MCM of Sulfolobus solfataricus with K346A (Walker A lysine); source: cloned and purified (Resource Q anion exchange, size-exclusion chromatography) as described previously [15]
Take B6: in series [3], the “stoichiometry N” value was found to be 6.

B7: ssoMCM mutant M2 (V324A) (enzyme, Sulfolobus solfataricus, UniProt Q9UXG1 1-686, looked up)
chain: B1 chain with V324A, A327D
notes: MCM of Sulfolobus solfataricus with V324A; source: cloned and purified (Resource Q anion exchange, size-exclusion chromatography) as described previously [15]
Consider B7, for which, in series [2] (mutant M2), the Km came out at 120 ± 20 nM and the kcat is 0.04 ± 0.00167 s⁻¹. The “stoichiometry N” value in series [3] came out at 6.

B8: Sulfolobus solfataricus MCM (minichromosome maintenance protein), wild type (enzyme, UniProt Q9UXG1 1-686, looked up)
chain: B1 chain with A327D
notes: MCM of Sulfolobus solfataricus, wild type; also called ssoMCM; WT; source: cloned and purified (Resource Q anion exchange, size-exclusion chromatography) as described previously [15]
B8: in series [2], the Km was determined as 170 ± 20 nM and the turnover number (kcat) was determined as 0.0517 ± 0.00167 s⁻¹. For the same molecule, the “stoichiometry N” value in series [3] worked out at 6.

B9: ssoMCM mutant M9 (R331A) (enzyme, Sulfolobus solfataricus, UniProt Q9UXG1 1-686, looked up)
chain: B1 chain with A327D, R331A
notes: MCM of Sulfolobus solfataricus with R331A; source: cloned and purified (Resource Q anion exchange, size-exclusion chromatography) as described previously [15]
For B9, the “stoichiometry N” value in series [3] was 6.

B10: ssoMCM mutant M5 (E326A) (enzyme, Sulfolobus solfataricus, UniProt Q9UXG1 1-686, looked up)
chain: B1 chain with E326A, A327D
notes: MCM of Sulfolobus solfataricus with E326A; source: cloned and purified (Resource Q anion exchange, size-exclusion chromatography) as described previously [15]
B10: the “stoichiometry N” value in series [3] is 6.

In general, stoichiometry N refers to a count of units in the complex or per binding partner. Usually Km stands for the substrate concentration at which the rate is half of its maximum. What is called kcat is the number of substrate molecules converted per active site and unit of time at saturation.
